This assay concerns the target 新冠假病毒Delta突变株的S蛋白 (B.1.617.2(Delta)) (SARS-CoV-2, UniProt P0DTC2 14-1273). Nature of the assay: cell-based or functional assay.

B1: 抗SARS-CoV-2(COVID-19)S蛋白RBD单克隆抗体B15-5-B3 (antibody, V domains shown)
VH: EVKFEESGGGLVQPGGSMKLSCAASGFTFSDAWMDWVRQSPEKGLEWVAEIRNKANNHATYYAESVKGRFTISRDDSKSSVYLQMNSLRAEDTGIYYCTPYDYAYPWFWGQGTLVTVSA
VL: EIVLTQSPTTMAASPGEKITITCSASSSISSHYLHWYQQKPGFSPKLLIYRSYSLASGFPGRFSGSGSGTSFSLSIGTMEAEDVATYYCQQGSSRITPFGGGTKLEIK
For B1, the “假病毒中和效应 EC50 (luciferase, HEK293-ACE2 cells)” value came out at 0.27 µg/mL.

The values above are taken from patent CN113999301A (JIANGSU XINTRUM PHARMACEUTICALS CO LTD, dated 2022).
